The record followed here is PMC7942993.

Where a chain is given by its changes, count along the chain named.

What all share (assay): EMSA
Settings in all cases: EMSA: 40 mM HEPES pH 7.9, 300 mM KCl, 10% glycerol, 8% Ficoll, 2 mM EDTA, 0.2 mM MgCl2, 1 mM DTT, 600 ug BSA, 30 ug poly(dI-dC), 30 ul, 20 min, room …
(In general: Mobility shift assays separate free from complexed probe on a gel.)

Data set [1] concerns the target T1, His-TRF1 T273D T273D (Homo sapiens) (UniProt P54274).
T1 sequence: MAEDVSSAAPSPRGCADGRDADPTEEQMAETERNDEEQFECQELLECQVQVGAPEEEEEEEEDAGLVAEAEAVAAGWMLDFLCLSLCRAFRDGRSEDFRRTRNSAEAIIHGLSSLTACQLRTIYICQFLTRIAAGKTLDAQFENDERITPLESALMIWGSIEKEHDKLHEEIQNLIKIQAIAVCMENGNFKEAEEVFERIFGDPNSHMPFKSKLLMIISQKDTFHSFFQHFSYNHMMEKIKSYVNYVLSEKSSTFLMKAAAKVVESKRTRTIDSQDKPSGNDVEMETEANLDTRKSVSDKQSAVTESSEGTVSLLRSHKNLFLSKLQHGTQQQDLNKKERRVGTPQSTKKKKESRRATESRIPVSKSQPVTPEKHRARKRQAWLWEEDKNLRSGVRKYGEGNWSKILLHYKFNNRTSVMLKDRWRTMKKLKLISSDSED

Data set [2] concerns the target T2, His-TRF1 WT (Homo sapiens) (UniProt P54274).
T2 sequence: T1 sequence with D273T

For data set [3], the target named is T3, His-TRF1 T358D T358D (Homo sapiens) (UniProt P54274).
T3 sequence: T1 sequence with D273T, T358D

Turning to “GGGTTAGGGTTAGGGTTAGGGTTAGGGTTAGGGTTAGGGTTAGGGCCCCTC (double strand) [ds (TTAGGG)7 telomeric probe]”, the binding signal in data set [1] and in data set [3] was > 1 fold of WT each time. In addition, the binding signal (fold of WT (reference)) in data set [2] stood at 1.
